Earlier results, collected in PMC8909277.
pKd: −log10 of the molar value.

Experiments:
claudin-9 (Homo sapiens) = claudin-9 (Homo sapiens) (UniProt O95484); test: BLI
claudin-4 (Homo sapiens) = claudin-4 (Homo sapiens) (UniProt O14493); test: SPR
Sequence of UniProt O14493 (O14493 whole entry): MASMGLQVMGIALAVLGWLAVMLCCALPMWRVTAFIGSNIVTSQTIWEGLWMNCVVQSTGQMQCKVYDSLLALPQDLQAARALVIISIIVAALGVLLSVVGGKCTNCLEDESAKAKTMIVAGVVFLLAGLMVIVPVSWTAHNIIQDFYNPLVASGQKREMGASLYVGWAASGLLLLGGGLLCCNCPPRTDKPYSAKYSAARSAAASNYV

Sequence of UniProt O95484 (O95484 whole entry): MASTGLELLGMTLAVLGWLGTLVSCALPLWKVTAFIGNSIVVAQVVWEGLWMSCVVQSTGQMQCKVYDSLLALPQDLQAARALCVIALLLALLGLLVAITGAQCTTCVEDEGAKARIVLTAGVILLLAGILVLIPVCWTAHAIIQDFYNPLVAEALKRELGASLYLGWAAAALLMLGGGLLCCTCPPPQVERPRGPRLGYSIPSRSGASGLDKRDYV

Row | Substance | pKd (claudin-9 (Homo sapiens)) | pKd (claudin-4 (Homo sapiens))
1 | CpE (from UniProt P01558) | 8.30 | –
2 | cCpE C-terminal domain (from UniProt P01558) | 8.30 | 8.47
